According to publication PMC1904107:

Molecular target: caldesmon(302–564) (UniProt Q05682)
Experiment: fluorescence cross-correlation spectroscopy

Kd: 500 nM
Substance: CaM(1–149) (from UniProt P0DP23 1-149) (natural protein)
